Test results as given in patent US20250264433A1.

B1: mAb-EspB-B7 (antibody, V domains shown)
VH: EVQLLESGGGLVQPGGSLRLSCAASGFTFSHYAMNWVRQAPGKGLEWVSAINSNGDSTYYPDTVKDRFTISRDNSKNTLYLQMNSLRAEDTAVYYCARDRRAGYFDYWGQGTLVTVSS
VL: DIVLTQPPSASGTPGQRVTISCSGSRDNIGKNYVSWYQQLPGTAPKLLIYRNNQRPSGVPDRFSGSKSGTSASLAISGLRSEDEADYYCSAWDTSLNAYVFGPGTQLTVL

How the values were obtained:
[1] = target: EspB cyclic peptide #49 (positions 193-207) (Enteropathogenic Escherichia coli (EPEC)); experiment: ELISA, plate coated with peptide #49, serially diluted mAb, anti-human IgG-HRP
[2] = target: EspB cyclic peptide #50 (positions 197-211) (Enteropathogenic Escherichia coli (EPEC)); experiment: ELISA, plate coated with peptide #50, serially diluted mAb, anti-human IgG-HRP

| Binder | EC50 (read off the curve) [1] [µg/mL] | EC50 (read off the curve) [2] [µg/mL] | IC50 (read off the curve) (mAb-EspB-B7) [µg/mL] |
| --- | --- | --- | --- |
| B1 | 0.5 | 0.5 | – |
| CTSAQKASQVAEEAADC (modifications not checked) [EspB cyclic peptide #49 (positions 193-207)] | – | – | 0.8 |
